Test results: paper PMC9016352, “Disease‐linked TDP‐43 hyperphosphorylation suppresses TDP‐43 condensation and aggregation”

Experiments:
[1] = molecular target: TDP‐43 (UniProt Q13148); test: condensate sedimentation assay, TDP-43 Western blot; conditions: reference: unmodified TDP-43 (no CK1δ, no ATP); sites S403,S404,S409,S410
[2] = molecular target: TDP-43-MBP-His6 Wt (human (hTDP-43)?, UniProt Q13148 1-414); test: EMSA; 20 mM NaPO4 pH 8, 150 mM NaCl, 1 mM DTT, 5 mM MgCl2, 0.5 mg/ml BSA, 0.1 mg/ml yeast tRNA, 5% glycerol, 1 U/ul RNase inhibitor, 20 min RT; 16 nM Cy5-RNA, 0-1.6 uM protein; 6% native PAGE 0.5x TBE; conditions: protein: recombinant; tags: C-terminal TEV site-MBP-His6; label: 5' Cy5

other: S/(S+C) ratio (higher = less condensate) [1]	Molecule	binding result [2]
weaker; reference ~0.25	TDP‐43 (from UniProt Q13148) TDP-43 + CK1δ + ATP	–
–	UGUGUGUGUGUGUGUGUGUGUGUG (ssRNA) [(UG)12 RNA]	binds
